Biological target: Mouse Pcdh15 EC1-2 wild-type (mouse, UniProt Q99PJ1-18 27-259)
Test: single-molecule force spectroscopy

koff: 0.0045 s⁻¹
B1: Mouse Cdh23 EC1-2 wild-type (domain or fragment, UniProt Q99PF4 24-228, looked up)
chain: QVNRLPFFTNHFFDTYLLISEDTPVGSSVTQLLARDMDNDPLVFGVSGEEASRFFAVEPDTGVVWLRQPLDRETKSEFTVEFSVSDHQGVITRKVNIQVGDVNDNAPTFHNQPYSVRIPENTPVGTPIFIVNATDPDLGAGGSVLYSFQPPSPFFAIDSARGIVTVIQELDYEVTQAYQLTVNATDQDKTRPLSTLANLAIIITD

From PMC6717114 (Biochemical Journal, 2019)
